Like-named read-outs stand apart in the source and are kept apart here.

Test [1] deals with neuraminidase of B/Lee/40 (purified whole virus) (influenza B virus B/Lee/40, UniProt P03474 1-466). Briefly: ELISA on purified whole virus.
Test [2] deals with recombinant neuraminidase (rNA) of B/Florida/04/06 (influenza B virus B/Florida/04/06). Kind of test: ELISA, biotinylated 4B2 on rNA B/Florida/04/2006, no competitor. For orientation: An ELISA detects its analyte on a solid surface through an enzyme-linked reagent.
Test [3] has as its target recombinant neuraminidase (rNA) of B/Malaysia/2506/04 (influenza B virus B/Malaysia/2506/04).
The target is the same in test [4]. Kind of test: ELISA, rNA B/Malaysia/2506/04 coated at 2 ug/mL.
The target in test [5] is recombinant neuraminidase (rNA) of B/Florida/04/06 (influenza B virus B/Florida/04/06).
Test [6] deals with neuraminidase of wild type B/Malaysia/2506/04 virus (on virus and on infected MDCK cells) (influenza B virus B/Malaysia/2506/04). Kind of test: cell-based or functional assay.
In test [7] the target is recombinant neuraminidase (rNA) of B/Florida/04/06 (influenza B virus B/Florida/04/06). Briefly: ELISA, biotinylated 3G1 on rNA B/Florida/04/2006, no competitor.
The target is the same in test [8]. Briefly: ELISA, rNA B/Florida/4/2006 coated at 2 ug/mL.
The target is the same in test [9]. This is another data set of the same source.
For test [10] the target is unchanged. Briefly: ELISA, biotinylated 1F2 on rNA B/Florida/04/2006, no competitor.

Sequence of neuraminidase of B/Lee/40 (purified whole virus) (P03474 whole entry): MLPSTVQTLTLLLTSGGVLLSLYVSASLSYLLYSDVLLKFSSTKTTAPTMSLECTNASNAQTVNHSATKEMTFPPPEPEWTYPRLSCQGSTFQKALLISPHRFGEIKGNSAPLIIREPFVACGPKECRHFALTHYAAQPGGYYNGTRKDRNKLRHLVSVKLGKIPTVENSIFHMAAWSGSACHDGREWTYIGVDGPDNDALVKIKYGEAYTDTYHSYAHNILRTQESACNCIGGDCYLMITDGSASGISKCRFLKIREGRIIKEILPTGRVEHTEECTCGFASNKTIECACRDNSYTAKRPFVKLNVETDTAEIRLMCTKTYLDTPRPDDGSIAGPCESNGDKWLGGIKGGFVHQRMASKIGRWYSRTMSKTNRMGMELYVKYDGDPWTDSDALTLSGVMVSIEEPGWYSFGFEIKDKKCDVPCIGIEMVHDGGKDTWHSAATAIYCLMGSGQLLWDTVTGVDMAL

B1: 4B2 antibody (murine IgG2a, hybridoma-produced) (antibody, V domains shown)
VH: QIQLVQSGPELKKPGETVKISCKASGFTFTDYPMHWVKQAPGKSLKWMGWINTETEEPTYSDDFKGRFALSLETSASTTYLQINNLKNEDTATYFCARSGYYYGSTYAWFGYWGQGTLVTVSA
VL: DVVMTQIPLSLPVSLGDQASISCRSSQSLIHTNGDTFLHWYLQKPGQSPKLLIYKVSNRFSGVPDRFTGGGSGTDFTLKISRVEAEDLGIYFCSQSALFPYTFGGGTNLEIK
notes: also called mAb 4B2
A word on the EC50 (read off the curve): it is the midpoint of the concentration-response curve. Turning to B1, the binding result in test [1] was “binds”. In test [2], the EC50 (read off the curve) came to 0.1 µg/mL.

B2: recombinant 4F11 IgG2b (antibody, V domains shown)
VH: DVKLVESGGDLVKPGGSLKLSCAASGFTFSAYSMSWVRQTPERRLEWVATINTGGSFTYYPDSVKGRFTISRDNAKNTLYLQMSSLKSEDTAMYFCTRVSDYGNSAYFPYWGQGTLVIVSA
VL: QVVLTQSPALISASPGEKVTMTCSASSNVNYMSWYQQRPRSSPKPWIYLTSKLASGVPPRFSGSGSGTSYSLTISSMEAEDVATYYCQQWSSDPQTFGGGTKVEIK
Usually Kd stands for the free concentration of one partner at which half of the binding sites on the other are occupied at equilibrium, for simple one-to-one binding. Regarding B2, the Kd in [3] was 0.00298 nM. In addition, the EC50 (read off the curve) in test [4] came to 0.07 µg/mL.

B3: recombinant 4F11 IgG2a (antibody, V domains shown)
VH: DVKLVESGGDLVKPGGSLKLSCAASGFTFSAYSMSWVRQTPERRLEWVATINTGGSFTYYPDSVKGRFTISRDNAKNTLYLQMSSLKSEDTAMYFCTRVSDYGNSAYFPYWGQGTLVIVSA
VL: QVVLTQSPALISASPGEKVTMTCSASSNVNYMSWYQQRPRSSPKPWIYLTSKLASGVPPRFSGSGSGTSYSLTISSMEAEDVATYYCQQWSSDPQTFGGGTKVEIK
With B3, in test [3], the Kd came out at 0.00336 nM.

B4: recombinant 4F11 monomeric IgA (antibody, V domains shown)
VH: DVKLVESGGDLVKPGGSLKLSCAASGFTFSAYSMSWVRQTPERRLEWVATINTGGSFTYYPDSVKGRFTISRDNAKNTLYLQMSSLKSEDTAMYFCTRVSDYGNSAYFPYWGQGTLVIVSA
VL: QVVLTQSPALISASPGEKVTMTCSASSNVNYMSWYQQRPRSSPKPWIYLTSKLASGVPPRFSGSGSGTSYSLTISSMEAEDVATYYCQQWSSDPQTFGGGTKVEIK
Turning to B4, the Kd in test [3] came out at 0.00472 nM.

B5: 4F11 antibody (murine IgG2b, hybridoma-produced) (antibody, V domains shown)
VH: DVKLVESGGDLVKPGGSLKLSCAASGFTFSAYSMSWVRQTPERRLEWVATINTGGSFTYYPDSVKGRFTISRDNAKNTLYLQMSSLKSEDTAMYFCTRVSDYGNSAYFPYWGQGTLVIVSA
VL: QVVLTQSPALISASPGEKVTMTCSASSNVNYMSWYQQRPRSSPKPWIYLTSKLASGVPPRFSGSGSGTSYSLTISSMEAEDVATYYCQQWSSDPQTFGGGTKVEIK
notes: also called mAb 4F11; 4F11 Hybridoma
In the case of B5, the binding result in [1] is given as “binds”. Besides, the EC50 (read off the curve) in [4] was found to be 0.06 µg/mL.

B6: recombinant 4F11 IgG1 (antibody, V domains shown)
VH: DVKLVESGGDLVKPGGSLKLSCAASGFTFSAYSMSWVRQTPERRLEWVATINTGGSFTYYPDSVKGRFTISRDNAKNTLYLQMSSLKSEDTAMYFCTRVSDYGNSAYFPYWGQGTLVIVSA
VL: QVVLTQSPALISASPGEKVTMTCSASSNVNYMSWYQQRPRSSPKPWIYLTSKLASGVPPRFSGSGSGTSYSLTISSMEAEDVATYYCQQWSSDPQTFGGGTKVEIK
With B6, in test [3], the Kd worked out at 0.00891 nM.

B7: 1F4 antibody (murine IgG2a, hybridoma-produced) (antibody, V domains shown)
VH: QVHLQQSGSELRSPGSSVKLSCKDFDSEVFPIVYMRWIRQKPGHGFEWIGDILPSFGRTIYGEKFEDKATLDADTVSNTAYLELNSLTSEDSAIYYCARGDHGNWLAYWGQGTLVTVSA
VL: DIVMTQSHKFMSTSVGDRVTITCKASQDVSTAVAWYQQKPGQSPKLLIYWASTRHTGVPNRFTGIISGTDYTLTISSVQAEDLALYYCQQHYSAPWTFGGGTKLEIK
notes: also called mAb 1F4; IF4
With B7, the EC50 (read off the curve) in [5] worked out at 0.04 µg/mL. Besides, in [1], the binding result was “binds”.

B8: 3G1 antibody (murine IgG2a, hybridoma-produced) (antibody, V domains shown)
VH: QVQLQQSGAELMKPGASVKISCKATGYKFTSYWIGWVKQRPGHGLEWCGEIFPGSGSINYNEKFKGKATFTADTSSNTAYLQLTSLTSEDSAVYYCARGEDYYGSSYGAMDYWGQGTSLTVSS
VL: DVQITQSPSYLAASPGETITINCRASKSISKYVAWYQEKPGRTNKVLIYSGSILSFGNPSRFSGSGSGTDFTLTISSLEPEDFAMYYCQQHNEYPWTFGGGTKLEIK
notes: also called mAb 3G1
B8 came in with an NI activity, NA-Star assay (percent inhibition) in [6] of 100%. In addition, in test [1], the binding result is listed as “binds”. Also, in test [7], the EC50 (read off the curve) amounted to 0.07 µg/mL.

B9: recombinant 1F2 IgG2a (antibody, V domains shown)
VH: QVHLQQSGPEVARPGASVKLSCKASGYTFTDYYLNWVKQRPRQGLEWIGQIHPGSTNTYYNEKFKGKATLTADKSSSTAYMQLSSLTSEDSAVYFCARSLGDGYYVYAMDYWGQGTAVTVSS
VL: DIVMTQSQKFMSTSVGDRVSVTCKASQNVVTNVVWYQQKPGQSPKPLIYSASYRYSGVPDRFTGSGSGTDFTLTISNVQSEDLAEYCCQQYHSYPFTFGSGTKLEVK
Take B9: the Kd in test [3] stood at 0.68 nM. For the same molecule, in test [8], the EC50 (read off the curve) amounted to 0.03 µg/mL.

B10: 1F2 antibody (murine IgG2a, hybridoma-produced) (antibody, V domains shown)
VH: QVHLQQSGPEVARPGASVKLSCKASGYTFTDYYLNWVKQRPRQGLEWIGQIHPGSTNTYYNEKFKGKATLTADKSSSTAYMQLSSLTSEDSAVYFCARSLGDGYYVYAMDYWGQGTAVTVSS
VL: DIVMTQSQKFMSTSVGDRVSVTCKASQNVVTNVVWYQQKPGQSPKPLIYSASYRYSGVPDRFTGSGSGTDFTLTISNVQSEDLAEYCCQQYHSYPFTFGSGTKLEVK
notes: also called mAb 1F2; IF2
For the molecule B10, the EC50 (read off the curve) in test [9] worked out at 0.2 µg/mL; in [8] it was 0.03 µg/mL; in [10] it was 0.02 µg/mL. For the same molecule, in test [1], the binding result is listed as “binds”.

B11: recombinant 1F2 IgG2b (antibody, V domains shown)
VH: QVHLQQSGPEVARPGASVKLSCKASGYTFTDYYLNWVKQRPRQGLEWIGQIHPGSTNTYYNEKFKGKATLTADKSSSTAYMQLSSLTSEDSAVYFCARSLGDGYYVYAMDYWGQGTAVTVSS
VL: DIVMTQSQKFMSTSVGDRVSVTCKASQNVVTNVVWYQQKPGQSPKPLIYSASYRYSGVPDRFTGSGSGTDFTLTISNVQSEDLAEYCCQQYHSYPFTFGSGTKLEVK
In the case of B11, the equilibrium dissociation constant (Kd) in test [3] turned out to be 1.16 nM. For the same molecule, in test [8], the EC50 (read off the curve) was determined as 0.03 µg/mL.

B12: recombinant 1F2 monomeric IgA (antibody, V domains shown)
VH: QVHLQQSGPEVARPGASVKLSCKASGYTFTDYYLNWVKQRPRQGLEWIGQIHPGSTNTYYNEKFKGKATLTADKSSSTAYMQLSSLTSEDSAVYFCARSLGDGYYVYAMDYWGQGTAVTVSS
VL: DIVMTQSQKFMSTSVGDRVSVTCKASQNVVTNVVWYQQKPGQSPKPLIYSASYRYSGVPDRFTGSGSGTDFTLTISNVQSEDLAEYCCQQYHSYPFTFGSGTKLEVK
Regarding B12, the Kd in test [3] is 0.958 nM.

B13: recombinant 1F2 IgG1 (antibody, V domains shown)
VH: QVHLQQSGPEVARPGASVKLSCKASGYTFTDYYLNWVKQRPRQGLEWIGQIHPGSTNTYYNEKFKGKATLTADKSSSTAYMQLSSLTSEDSAVYFCARSLGDGYYVYAMDYWGQGTAVTVSS
VL: DIVMTQSQKFMSTSVGDRVSVTCKASQNVVTNVVWYQQKPGQSPKPLIYSASYRYSGVPDRFTGSGSGTDFTLTISNVQSEDLAEYCCQQYHSYPFTFGSGTKLEVK
As to B13, the dissociation constant (Kd) in [3] came out at 1.05 nM. Also, the EC50 (read off the curve) in test [8] stood at 0.05 µg/mL.

These data come from patent publication US20220153873A1 (ICAHN SCHOOL OF MEDICINE AT MOUNT SINAI, published 2022).
